Residue numbers refer to the chain shown, from its start.
B1: 126 (protein)
chain: LDNGLARTPTMGWLHWERFMCNLDCQEEPDSCISEKLFMEMAELMVSEGWKDAGYEYLCIDDCWMAPQRDSEGRLQADPQRFPHGIRQLANYVHSKGLKLGIYADVGNKTCAGFPGSFGYYDIDAQTFADWGVDLLKFDGCYCDSLENLADGYKHMSLALNRTGRSIVYSCEWPLYMWPFQKPNYTEIRQYCNHWRNFADIDDSWKSIKSILDWTSFNQERIVDVAGPGGWNDPDMLVIGNFGLSWNQQVTQMALWAIMAAPLFMSNDLRHISPQAKALLQDKDVIAINQDPLGKQGYQLRQGDNFEVWERPLSGLAWAVAMINRQEIGGPRSYTIAVASLGKGVACNPACFITQLLPVKRKLGFYEWTSRLRSHINPTGTVLLQLENTDQMSKDLLL
modifications: Synthetic Polypeptide sequence of Variant No. 126 of mature Human GLA
B2: 127 (protein)
chain: B1 chain with D390R
modifications: Synthetic Polypeptide sequence of Variant No. 127 of mature Human GLA
B3: 128 (protein)
chain: B1 chain with D390T
modifications: Synthetic Polypeptide sequence of Variant No. 128 of mature Human GLA
B4: 129 (protein)
chain: B1 chain with D390M, M392G
modifications: Synthetic Polypeptide sequence of Variant No. 129 of mature Human GLA
B5: 130 (protein)
chain: B1 chain with D390M, M392P
modifications: Synthetic Polypeptide sequence of Variant No. 130 of mature Human GLA
B6: 131 (protein)
chain: B1 chain with D390M, M392S
modifications: Synthetic Polypeptide sequence of Variant No. 131 of mature Human GLA
B7: 132 (protein)
chain: B1 chain with M39Y, D390M
modifications: Synthetic Polypeptide sequence of Variant No. 132 of mature Human GLA
B8: 36 (protein)
chain: B1 chain with A350G, D390M
modifications: Synthetic Polypeptide sequence of Variant No. 36 of mature Human GLA
B9: 133 (protein)
chain: B1 chain with N388R, D390M
modifications: Synthetic Polypeptide sequence of Variant No. 133 of mature Human GLA
B10: 134 (protein)
chain: B1 chain with N91Q, D390M
modifications: Synthetic Polypeptide sequence of Variant No. 134 of mature Human GLA
B11: 135 (protein)
chain: B1 chain with Q190S, T369D, D390M
modifications: Synthetic Polypeptide sequence of Variant No. 135 of mature Human GLA
B12: 136 (protein)
chain: B1 chain with Q249A, D390M
modifications: Synthetic Polypeptide sequence of Variant No. 136 of mature Human GLA

Assay: HTP-analysis of supernatants pretreated with base (MUGal hydrolysis)
Type: biochemical
Details: challenge at pH 7.1; activity of the variant/activity of WT GLA (SEQ ID NO: 5); yeast supernatant
In short: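 GLA variants secreted from yeast INVSc1; culture supernatants pre-incubated with McIlvaine buffer pH 7.0–8.2 or 200 mM bicarbonate pH 9.1–9.7 at 37° C. for 1–18 h. Residual activity: MUGal (4 mM stock) hydrolysis at pH 4.3–4.8, 37° C., 30–180 min, carbonate quench; fluorescence Ex 355/Em 448 nm.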

Molecule | Relative Activity of GLA Variants After Challenge at pH 7.1
B1 | +++ (+++ = >2.5 relative activity over WT GLA (SEQ ID NO: 5))
B2 | ++ (++ = >1.5 to 2.5 relative activity over WT GLA (SEQ ID NO: 5))
B3 | + (+ = 0.5 to 1.5 relative activity over WT GLA (SEQ ID NO: 5))
B4 | ++ (++ = >1.5 to 2.5 relative activity over WT GLA (SEQ ID NO: 5))
B5 | + (+ = 0.5 to 1.5 relative activity over WT GLA (SEQ ID NO: 5))
B6 | ++ (++ = >1.5 to 2.5 relative activity over WT GLA (SEQ ID NO: 5))
B7 | + (+ = 0.5 to 1.5 relative activity over WT GLA (SEQ ID NO: 5))
B8 | ++ (++ = >1.5 to 2.5 relative activity over WT GLA (SEQ ID NO: 5))
B9 | + (+ = 0.5 to 1.5 relative activity over WT GLA (SEQ ID NO: 5))
B10 | + (+ = 0.5 to 1.5 relative activity over WT GLA (SEQ ID NO: 5))
B11 | ++ (++ = >1.5 to 2.5 relative activity over WT GLA (SEQ ID NO: 5))
B12 | + (+ = 0.5 to 1.5 relative activity over WT GLA (SEQ ID NO: 5))

Assay: HTP-analysis of yeast culture supernatants, no challenge (MUGal hydrolysis)
Type: biochemical
Details: activity of the variant/activity of WT GLA (SEQ ID NO: 5), yeast supernatant
In short: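 GLA variants expressed in yeast INVSc1, secreted into SD-Ura broth over 66-84 h at 30° C; clarified supernatants tested without challenge. Supernatant mixed with McIlvaine buffer pH 4.8 and 2 mM MUGal (citrate/KCl, pH 4.6), 37° C for 30-180 min, carbonate-quenched, fluorescence Ex 355/Em 448 nm.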

Molecule | Relative Activity of GLA Variants After No Challenge (NC)
B1 | +++ (+++ = >2.5 relative activity over WT GLA (SEQ ID NO: 5))
B2 | ++ (++ = >1.5 to 2.5 relative activity over WT GLA (SEQ ID NO: 5))
B3 | + (+ = 0.5 to 1.5 relative activity over WT GLA (SEQ ID NO: 5))
B4 | + (+ = 0.5 to 1.5 relative activity over WT GLA (SEQ ID NO: 5))
B5 | + (+ = 0.5 to 1.5 relative activity over WT GLA (SEQ ID NO: 5))
B6 | ++ (++ = >1.5 to 2.5 relative activity over WT GLA (SEQ ID NO: 5))
B7 | + (+ = 0.5 to 1.5 relative activity over WT GLA (SEQ ID NO: 5))
B8 | + (+ = 0.5 to 1.5 relative activity over WT GLA (SEQ ID NO: 5))
B9 | + (+ = 0.5 to 1.5 relative activity over WT GLA (SEQ ID NO: 5))
B10 | + (+ = 0.5 to 1.5 relative activity over WT GLA (SEQ ID NO: 5))
B11 | ++ (++ = >1.5 to 2.5 relative activity over WT GLA (SEQ ID NO: 5))
B12 | + (+ = 0.5 to 1.5 relative activity over WT GLA (SEQ ID NO: 5))

Assay: HTP-analysis of supernatants pretreated with acid (MUGal hydrolysis)
Type: biochemical
Details: challenge at pH 4.2; activity of the variant/activity of WT GLA (SEQ ID NO: 5); yeast supernatant
In short: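 GLA variants were secreted from INVSc1 yeast grown 66-84 h at 30° C. in SD-Ura with 2% glucose; supernatants were mixed with McIlvaine buffer pH 3.3-4.3 and held at 37° C. for 1-3 h. Residual activity on MUGal at pH 4.8 was then measured by fluorescence.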

Molecule | Relative Activity of GLA Variants After Challenge at pH 4.2
B1 | +++ (+++ = >2.5 relative activity over WT GLA (SEQ ID NO: 5))
B2 | ++ (++ = >1.5 to 2.5 relative activity over WT GLA (SEQ ID NO: 5))
B3 | + (+ = 0.5 to 1.5 relative activity over WT GLA (SEQ ID NO: 5))
B4 | ++ (++ = >1.5 to 2.5 relative activity over WT GLA (SEQ ID NO: 5))
B5 | ++ (++ = >1.5 to 2.5 relative activity over WT GLA (SEQ ID NO: 5))
B6 | + (+ = 0.5 to 1.5 relative activity over WT GLA (SEQ ID NO: 5))
B7 | + (+ = 0.5 to 1.5 relative activity over WT GLA (SEQ ID NO: 5))
B8 | ++ (++ = >1.5 to 2.5 relative activity over WT GLA (SEQ ID NO: 5))
B9 | + (+ = 0.5 to 1.5 relative activity over WT GLA (SEQ ID NO: 5))
B10 | + (+ = 0.5 to 1.5 relative activity over WT GLA (SEQ ID NO: 5))
B11 | +++ (+++ = >2.5 relative activity over WT GLA (SEQ ID NO: 5))
B12 | + (+ = 0.5 to 1.5 relative activity over WT GLA (SEQ ID NO: 5))
